The text below walks through data of paper PMC4371549.

One may read the Kd as a measure of binding affinity in units of concentration. Lower therefore signals higher affinity. A word on the koff: it is a measure of how fast the partners let go of each other. The low end stands for a long-lived complex, the high end for a short-lived complex. The kon is a measure of how fast the partners come together. Read a low kon as slow association.

Common to all, as to assay: resonant mirror detection
Experiment [1] has as its target cytoplasmic domain of glycophorin C (UniProt P04921).
Experiment [2] deals with p55 (UniProt Q00013).
Experiment [3] concerns the target cytoplasmic domain of band 3 (UniProt P02730).
The target in experiment [4] is cytoplasmic domain of CD44 (UniProt P16070).
Experiment [5] deals with cytoplasmic domain of glycophorin C (UniProt P04921). This is another data set of the same source.
Experiment [6] addresses p55 (UniProt Q00013). The source holds these as a separate data set.
The target in experiment [7] is cytoplasmic domain of band 3 (UniProt P02730). The source holds these as a separate data set.
Experiment [8] addresses cytoplasmic domain of CD44 (UniProt P16070). This is another data set of the same source.
A further experiment addresses calmodulin (UniProt P0DP23).

Where two headings read alike, the source gives them in different places.

p55, sequence (Q00013 whole entry, the tested form may be a part): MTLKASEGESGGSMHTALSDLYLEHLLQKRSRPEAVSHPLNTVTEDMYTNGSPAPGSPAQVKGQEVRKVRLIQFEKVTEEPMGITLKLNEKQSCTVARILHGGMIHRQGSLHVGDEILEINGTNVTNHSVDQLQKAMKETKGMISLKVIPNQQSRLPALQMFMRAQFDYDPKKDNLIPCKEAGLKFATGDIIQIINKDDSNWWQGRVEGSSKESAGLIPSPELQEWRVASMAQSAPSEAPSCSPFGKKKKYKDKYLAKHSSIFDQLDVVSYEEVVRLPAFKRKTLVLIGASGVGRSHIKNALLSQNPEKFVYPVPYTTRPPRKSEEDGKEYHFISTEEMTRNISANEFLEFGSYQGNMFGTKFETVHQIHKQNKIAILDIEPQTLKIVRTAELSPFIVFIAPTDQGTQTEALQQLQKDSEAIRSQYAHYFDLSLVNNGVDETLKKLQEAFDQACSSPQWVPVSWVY
cytoplasmic domain of CD44, sequence (P16070 671-742): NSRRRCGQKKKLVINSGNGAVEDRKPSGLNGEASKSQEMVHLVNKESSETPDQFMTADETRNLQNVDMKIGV
cytoplasmic domain of band 3, sequence (P02730 1-403): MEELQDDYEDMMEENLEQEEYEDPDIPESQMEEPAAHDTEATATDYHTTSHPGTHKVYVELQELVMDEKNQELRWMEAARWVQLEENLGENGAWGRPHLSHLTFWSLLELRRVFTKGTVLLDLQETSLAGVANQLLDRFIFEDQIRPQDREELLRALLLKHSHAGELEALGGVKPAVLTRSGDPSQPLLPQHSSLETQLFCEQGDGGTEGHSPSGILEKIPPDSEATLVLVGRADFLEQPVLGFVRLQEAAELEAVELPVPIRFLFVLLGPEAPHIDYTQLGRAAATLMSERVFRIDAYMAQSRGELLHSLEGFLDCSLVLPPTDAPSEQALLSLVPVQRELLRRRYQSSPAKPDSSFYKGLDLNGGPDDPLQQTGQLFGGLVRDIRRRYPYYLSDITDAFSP
cytoplasmic domain of glycophorin C, sequence (P04921 82-128): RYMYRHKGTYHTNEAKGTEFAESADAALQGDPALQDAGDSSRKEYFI

Consider “complex of RHP-G30 and CaM (from UniProt P11171 1-209; P0DP23 1-149)”, for which the Kd in experiment [1] was 237 nM; in the experiment with p55 [2], 113 nM; in experiment [3], 183 nM; in experiment [4] it was 314 nM; in [5] it was 1480 nM; with p55 [6], 1760 nM. Further, the Kd was 2190 nM in [7] and 737 nM in experiment [8]. The koff in experiment [3] is 0.012 s⁻¹; in experiment [4], 0.016 s⁻¹; with p55 [6] it was 0.012 s⁻¹; in experiment [8] it was 0.019 s⁻¹. The kon was 51000 M⁻¹ s⁻¹ in experiment [4] and 25000 M⁻¹ s⁻¹ in [8].
“G30 (30kDa membrane binding domain of protein 4.1G) (from UniProt O43491 1-1005) (domain or fragment)”: the Kd in the experiment with calmodulin is 190 nM.
In the experiment with calmodulin, “GHP-G30 (headpiece region and 30kDa domain of 4.1G) (from UniProt O43491 1-1005) (domain or fragment)” had a Kd of 2970 nM and an on-rate (kon) of 180000 M⁻¹ s⁻¹.
